The values that follow come from publication doi:10.1101/2020.08.06.225375 (bioRxiv, 2020).

B1: M. smegmatis ATP synthase subunit a (natural protein)
chain: MLAAEEGGAAIHVGHHTLVFELFGMTFNGDTILATAVTAVIVIALAFYLRAKVTSTGVPSGVQLFWEALTIQMRQQIEGSIGMKIAPFVLPLSVTIFVFILISNWLAVLPLQYGGADGAAAELYKAPASDINFVLALALFVFVCYHAAGIWRRGIVGHPIKVVKGHVAFLAPINIVEELAKPISLALRLFGNIFAGGILVALIAMFPWYIQWFPNAVWKTFDLFVGLIQAFIFSLLTILYFSQSMELDHEDH
B2: M. smegmatis ATP synthase subunit β with C-terminal 3×FLAG tag (natural protein)
chain: MTATAEKTAGRVVRITGPVVDVEFPRGSVPELFNALHAEITFGALAKTLTLEVAQHLGDSLVRCISMQPTDGLVRGVEVTDTGASISVPVGDGVKGHVFNALGDCLDDPGYGKDFEHWSIHRKPPAFSDLEPRTEMLETGLKVVDLLTPYVRGGKIALFGGAGVGKTVLIQEMINRIARNFGGTSVFAGVGERTREGNDLWVELADANVLKDTALVFGQMDEPPGTRMRVALSALTMAEFFRDEQGQDVLLFIDNIFRFTQAGSEVSTLLGRMPSAVGYQPTLADEMGELQERITSTRGRSITSMQAVYVPADDYTDPAPATTFAHLDATTELSRAVFSKGIFPAVDPLASSSTILDPAIVGDEHYRVAQEVIRILQRYKDLQDIIAILGIDELSEEDKQLVNRARRIERFLSQNMMAAEQFTGQPGSTVPLKETIEAFDKLTKGEFDHLPEQAFFLIGGLDDLAKKAESLGAKL
B3: M. smegmatis ATP synthase subunit c (natural protein)
chain: MDLDPNAIITAGALIGGGLIMGGGAIGAGIGDGIAGNALISGIARQPEAQGRLFTPFFITVGLVEAAYFINLAFMALFVFATPGLQ
B4: M. smegmatis ATP synthase subunit b′ (natural protein)
chain: MGEFSATILAASQAAEEGGGGSNFLIPNGTFFAVLIIFLIVLGVISKWVVPPISKVLAEREAMLAKTAADNRKSAEQVAAAQADYEKEMAEARAQASALRDEARAAGRSVVDEKRAQASGEVAQTLTQADQQLSAQGDQVRSGLESSVDGLSAKLASRILGVDVNSGGTQ
B5: M. smegmatis ATP synthase subunit γ (natural protein)
chain: MAATLRELRGRIRSAGSIKKITKAQELIATSRIAKAQARVEAARPYAAEITNMLTELAGASALDHPLLVERKQPKRAGVLVVSSDRGLCGAYNANVLRRAEELFSLLRDEGKDPVLYVVGRKALGYFSFRQRTVVESWTGFSERPTYENAREIADTLVNAFMAGADDEGDDAGADGILGVDELHIVFTEFRSMLSQTAVARRAAPMEVEYVGEVETGPRTLYSFEPDPETLFDALLPRYIATRVYAALLEAAASESASRRRAMKSATDNADDLIKALTLAANRERQAQITQEISEIVGGANALAGSK
B6: M. smegmatis ATP synthase subunit ε (natural protein)
chain: MADLNVEIVAVERELWSGPATFVFTRTTAGEIGILPRHIPLVAQLVDDAMVRVEREGEDDLRIAVDGGFLSVTEETVRILVENAQFESEIDADAAKEDAASDDERTAAWGRARLRALGQID
B7: M. smegmatis ATP synthase subunit b-δ (b-δ fusion protein) (natural protein)
chain: MSIFIGQLIGFAVIAFIIVKWVVPPVRTLMRNQQEAVRAALAESAEAAKKLADADAMHAKALADAKAESEKVTEEAKQDSERIAAQLSEQAGSEAERIKAQGAQQIQLMRQQLIRQLRTGLGAEAVNKAAEIVRAHVADPQAQSATVDRFLSELEQMAPSSVVIDTAATSRLRAASRQSLAALVEKFDSVAGGLDADGLTNLADELASVAKLLLSETALNKHLAEPTDDSAPKVRLLERLLSDKVSATTLDLLRTAVSNRWSTESNLIDAVEHTARLALLKRAEIAGEVDEVEEQLFRFGRVLDAEPRLSALLSDYTTPAEGRVALLDKALTGRPGVNQTAAALLSQTVGLLRGERADEAVIDLAELAVSRRGEVVAHVSAAAELSDAQRTRLTEVLSRIYGRPVSVQLHVDPELLGGLSITVGDEVIDGSIASRLAAAQTGLPD

What all share (assay): cryo-EM structure
The target of series [1] is B7.
Series [2] addresses B2.
For series [3], the target named is M. smegmatis ATP synthase subunit α (M. smegmatis, UniProt A0R202 1-548).
The series “cryo-EM structure” deals with the molecule itself.
In series [4] the target is B1.

Chain of M. smegmatis ATP synthase subunit α (A0R202 whole entry): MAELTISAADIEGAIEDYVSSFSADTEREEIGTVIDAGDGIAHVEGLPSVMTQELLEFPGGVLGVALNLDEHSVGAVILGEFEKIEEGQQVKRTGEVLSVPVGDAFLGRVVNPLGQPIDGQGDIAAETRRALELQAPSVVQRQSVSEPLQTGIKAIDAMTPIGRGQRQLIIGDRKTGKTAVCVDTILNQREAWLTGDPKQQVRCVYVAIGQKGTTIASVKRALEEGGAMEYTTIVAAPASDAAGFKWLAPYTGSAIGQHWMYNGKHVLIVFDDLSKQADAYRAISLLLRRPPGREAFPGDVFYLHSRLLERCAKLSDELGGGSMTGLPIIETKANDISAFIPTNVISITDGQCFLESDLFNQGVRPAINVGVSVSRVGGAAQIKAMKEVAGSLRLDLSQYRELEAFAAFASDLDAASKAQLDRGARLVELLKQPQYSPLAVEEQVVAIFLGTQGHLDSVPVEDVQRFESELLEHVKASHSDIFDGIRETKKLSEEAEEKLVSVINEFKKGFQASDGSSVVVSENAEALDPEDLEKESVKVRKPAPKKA

Take B1: the binding result in series [1] and in series [2] was “binds” throughout.

Turning to B2, the binding result in series [3] is recorded as “binds”. On to B3, for which the stoichiometry N (usually a count of units in the complex or per binding partner) in “cryo-EM structure” is 9. The binding result in series [2] and in series [4] was “binds” throughout.

In the case of B4, the binding result in series [2] and in series [4] was “binds” in each case. In the case of B5, the binding result in series [3] and in series [2] was “binds” in each case. As for B6, the binding result in series [2] is “binds”. As for B7, the binding result in series [3] and in series [2] was “binds” each time.
